Assay results reported in IntAct's records for PubMed 22664871.

B1: Tumor necrosis factor ligand superfamily member 11 (Homo sapiens), O14788 (parent)
chain: MRRASRDYTKYLRGSEEMGGGPGAPHEGPLHAPPPPAPHQPPAASRSMFVALLGLGLGQVVCSVALFFYFRAQMDPNRISEDGTHCIYRILRLHENADFQDTTLESQDTKLIPDSCRRIKQAFQGAVQKELQHIVGSQHIRAEKAMVDGSWLDLAKRSKLEAQPFAHLTINATDIPSGSHKVSLSSWYHDRGWAKISNMTFSNGKLIVNQDGFYYLYANICFRHHETSGDLATEYLQLMVYVTKTSIKIPSSHTLMKGGSTKYWSGNSEFHFYSINVGGFFKLRSGEEISIEVSNPSLLDPDQDATYFGAFKVRDID
partner: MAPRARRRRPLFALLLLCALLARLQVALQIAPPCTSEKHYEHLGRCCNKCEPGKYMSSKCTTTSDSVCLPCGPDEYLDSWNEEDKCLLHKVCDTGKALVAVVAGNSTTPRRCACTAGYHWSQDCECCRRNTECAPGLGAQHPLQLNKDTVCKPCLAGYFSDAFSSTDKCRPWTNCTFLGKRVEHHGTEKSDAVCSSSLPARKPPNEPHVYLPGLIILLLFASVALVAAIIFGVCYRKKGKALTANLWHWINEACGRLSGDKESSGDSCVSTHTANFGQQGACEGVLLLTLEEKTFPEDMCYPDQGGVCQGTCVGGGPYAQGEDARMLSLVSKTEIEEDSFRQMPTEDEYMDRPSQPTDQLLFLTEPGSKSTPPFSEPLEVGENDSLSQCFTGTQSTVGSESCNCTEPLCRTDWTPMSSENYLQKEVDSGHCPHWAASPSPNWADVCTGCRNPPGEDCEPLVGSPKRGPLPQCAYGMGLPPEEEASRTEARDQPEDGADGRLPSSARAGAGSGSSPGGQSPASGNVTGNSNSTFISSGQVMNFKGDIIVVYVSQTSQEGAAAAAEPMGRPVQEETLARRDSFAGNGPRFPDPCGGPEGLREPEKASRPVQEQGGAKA
B2: Tumor necrosis factor receptor superfamily member 11B (Homo sapiens), O00300 (parent)
chain: MNNLLCCALVFLDISIKWTTQETFPPKYLHYDEETSHQLLCDKCPPGTYLKQHCTAKWKTVCAPCPDHYYTDSWHTSDECLYCSPVCKELQYVKQECNRTHNRVCECKEGRYLEIEFCLKHRSCPPGFGVVQAGTPERNTVCKRCPDGFFSNETSSKAPCRKHTNCSVFGLLLTQKGNATHDNICSGNSESTQKCGIDVTLCEEAFFRFAVPTKFTPNWLSVLVDNLPGTKVNAESVERIKRQHSSQEQTFQLLKLWKHQNKDQDIVKKIIQDIDLCENSVQRHIGHANLTFEQLRSLMESLPGKKVGAEDIEKTIKACKPSDQILKLLSLWRIKNGDQDTLKGLMHALKHSKTYHFPKTVTQSLKKTIRFLHSFTMYKLYQKLFLEMIGNQVQSVKISCL
partner: B1 chain
B3: Tumor necrosis factor ligand superfamily member 11 (Homo sapiens), O14788 (parent)
chain: B1 chain
partner: B2 chain

Variants of: B1
Conditions: with tnr11_human TNFRSF11A

Row | effect of a mutation on the interaction | Variant
1 | decreasing interaction strength | MRRASRDYTKYLRGSEEMGGGPGAPHEGPLHAPPPPAPHQPPAASRSMFVALLGLGLGQVVCSVALFFYFRAQMDPNRISEDGTHCIYRILRLHENADFQDTTLESQDTKLIPDSCRRIKQAFQGAVQKELQHIVGSQHIRAEKAMVDGSWLDLAKRSKLEAQPFAHLTINATDIPSGSHKVSLSSWYHDRGWAKISNMTFSNGKLIVNQDGFYYLYANICFRHHETSGDLATEYLQLMVAVTKTSIKIPSSHTLMKGGSTKYWSGNSEFHFYSINVGGFFKLRSGEEISIEVSNPSLLDPDQDATYFGAFKVRDID [Y241A]
2 | disrupting interaction strength | MRRASRDYTKYLRGSEEMGGGPGAPHEGPLHAPPPPAPHQPPAASRSMFVALLGLGLGQVVCSVALFFYFRAQMDPNRISEDGTHCIYRILRLHENADFQDTTLESQDTKLIPDSCRRIKQAFQGAVQKELQHIVGSQHIRAEKAMVDGSWLDLAKRSKLEAQPFAHLTINATDIPSGSHKVSLSSWYHDRGWAKISNMTFSNGKLIVNQDGFYYLYANICFAHHETSGDLATEYLQLMVYVTKTSIKIPSSHTLMKGGSTKYWSGNSEFHFYSINVGGFFKLRSGEEISIEVSNPSLLDPDQDATYFGAFKVRDID [R223A]
3 | disrupting interaction strength | MRRASRDYTKYLRGSEEMGGGPGAPHEGPLHAPPPPAPHQPPAASRSMFVALLGLGLGQVVCSVALFFYFRAQMDPNRISEDGTHCIYRILRLHENADFQDTTLESQDTKLIPDSCRRIKQAFQGAVQKELQHIVGSQHIRAEKAMVDGSWLDLAKRSKLEAQPFAHLTINATDIPSGSHKVSLSSWYHDRGWAKISNMTFSNGKLIVNQDGFYYLYANICFRHHETSGDLATEYLQLMVYVTKTSIKIPSSHTLMAGGSTKYWSGNSEFHFYSINVGGFFKLRSGEEISIEVSNPSLLDPDQDATYFGAFKVRDID [K257A]

Variants of: B2
Conditions: with tnf11_human TNFSF11, O14788

Row | effect of a mutation on the interaction | Variant
4 | with no effect | MNNLLCCALVFLDISIKWTTQETFPPKYLHYDEETSHQLLCDKCPPGTYLKQHCTAKWKTVCAPCPDHYYTDSWHTSAACLYCSPVCKELQYVKQECNRTHNRVCECKEGRYLEIEFCLKHRSCPPGFGVVQAGTPERNTVCKRCPDGFFSNETSSKAPCRKHTNCSVFGLLLTQKGNATHDNICSGNSESTQKCGIDVTLCEEAFFRFAVPTKFTPNWLSVLVDNLPGTKVNAESVERIKRQHSSQEQTFQLLKLWKHQNKDQDIVKKIIQDIDLCENSVQRHIGHANLTFEQLRSLMESLPGKKVGAEDIEKTIKACKPSDQILKLLSLWRIKNGDQDTLKGLMHALKHSKTYHFPKTVTQSLKKTIRFLHSFTMYKLYQKLFLEMIGNQVQSVKISCL [D78A;E79A]
5 | decreasing interaction strength | MNNLLCCALVFLDISIKWTTQETFPPKYLHYDEETSHQLLCDKCPPGTYLKQHCTAKWKTVCAPCPDHYYTDSWHTSDECLYCSPVCKELQYVKQECNRTHNRVCECKEGRYLEIAFCLKHRSCPPGFGVVQAGTPERNTVCKRCPDGFFSNETSSKAPCRKHTNCSVFGLLLTQKGNATHDNICSGNSESTQKCGIDVTLCEEAFFRFAVPTKFTPNWLSVLVDNLPGTKVNAESVERIKRQHSSQEQTFQLLKLWKHQNKDQDIVKKIIQDIDLCENSVQRHIGHANLTFEQLRSLMESLPGKKVGAEDIEKTIKACKPSDQILKLLSLWRIKNGDQDTLKGLMHALKHSKTYHFPKTVTQSLKKTIRFLHSFTMYKLYQKLFLEMIGNQVQSVKISCL [E116A]

Variants of: B3
Conditions: with tr11b_human TNFRSF11B

Row | effect of a mutation on the interaction | Variant
6 | disrupting interaction strength | MRRASRDYTKYLRGSEEMGGGPGAPHEGPLHAPPPPAPHQPPAASRSMFVALLGLGLGQVVCSVALFFYFRAQMDPNRISEDGTHCIYRILRLHENADFQDTTLESQDTKLIPDSCRRIKQAFQGAVQKELQHIVGSQHIRAEKAMVDGSWLDLAKRSKLEAQPFAHLTINATDIPSGSHKVSLSSWYHDRGWAKISNMTFSNGKLIVNQDGFYYLYANICFRHHETSGDLATEYLQLMVYVTKTSIKIPSSHTLMAGGSTKYWSGNSEFHFYSINVGGFFKLRSGEEISIEVSNPSLLDPDQDATYFGAFKVRDID [K257A]
7 | decreasing interaction strength | MRRASRDYTKYLRGSEEMGGGPGAPHEGPLHAPPPPAPHQPPAASRSMFVALLGLGLGQVVCSVALFFYFRAQMDPNRISEDGTHCIYRILRLHENADFQDTTLESQDTKLIPDSCRRIKQAFQGAVQKELQHIVGSQHIRAEKAMVDGSWLDLAKRSKLEAQPFAHLTINATDIPSGSHKVSLSSWYHDRGWAKISNMTFSNGKLIVNQDGFYYLYANICFRHHETSGDLATEYLQLMVAVTKTSIKIPSSHTLMKGGSTKYWSGNSEFHFYSINVGGFFKLRSGEEISIEVSNPSLLDPDQDATYFGAFKVRDID [Y241A]
8 | disrupting interaction strength | MRRASRDYTKYLRGSEEMGGGPGAPHEGPLHAPPPPAPHQPPAASRSMFVALLGLGLGQVVCSVALFFYFRAQMDPNRISEDGTHCIYRILRLHENADFQDTTLESQDTKLIPDSCRRIKQAFQGAVQKELQHIVGSQHIRAEKAMVDGSWLDLAKRSKLEAQPFAHLTINATDIPSGSHKVSLSSWYHDRGWAKISNMTFSNGKLIVNQDGFYYLYANICFAHHETSGDLATEYLQLMVYVTKTSIKIPSSHTLMKGGSTKYWSGNSEFHFYSINVGGFFKLRSGEEISIEVSNPSLLDPDQDATYFGAFKVRDID [R223A]
